Test results from IntAct's records for PubMed 17540172.

B1: "Lethal(3)malignant brain tumor-like protein 1" (Homo sapiens), Q9Y468 (parent)
chain: MHLVAGDSPGSGPHLPATAFIIPASSATLGLPSSALDVSCFPREPIHVGAPEQVAGCEPVSATVLPQLSAGPASSSTSTVRLLEWTEAAAPPPGGGLRFRISEYKPLNMAGVEQPPSPELRQEGVTEYEDGGAPAGDGEAGPQQAEDHPQNPPEDPNQDPPEDDSTCQCQACGPHQAAGPDLGSSNDGCPQLFQERSVIVENSSGSTSASELLKPMKKRKRREYQSPSEEESEPEAMEKQEEGKDPEGQPTASTPESEEWSSSQPATGEKKECWSWESYLEEQKAITAPVSLFQDSQAVTHNKNGFKLGMKLEGIDPQHPSMYFILTVAEVCGYRLRLHFDGYSECHDFWVNANSPDIHPAGWFEKTGHKLQPPKGYKEEEFSWSQYLRSTRAQAAPKHLFVSQSHSPPPLGFQVGMKLEAVDRMNPSLVCVASVTDVVDSRFLVHFDNWDDTYDYWCDPSSPYIHPVGWCQKQGKPLTPPQDYPDPDNFCWEKYLEETGASAVPTWAFKVRPPHSFLVNMKLEAVDRRNPALIRVASVEDVEDHRIKIHFDGWSHGYDFWIDADHPDIHPAGWCSKTGHPLQPPLGPREPSSASPGGCPPLSYRSLPHTRTSKYSFHHRKCPTPGCDGSGHVTGKFTAHHCLSGCPLAERNQSRLKAELSDSEASARKKNLSGFSPRKKPRHHGRIGRPPKYRKIPQEDFQTLTPDVVHQSLFMSALSAHPDRSLSVCWEQHCKLLPGVAGISASTVAKWTIDEVFGFVQTLTGCEDQARLFKDEARIVRVTHVSGKTLVWTVAQLGDLVCSDHLQEGKGILETGVHSLLCSLPTHLLAKLSFASDSQY

Variants of: B1
Conditions: with h14_human H1-4, P10412
Chain of h14_human H1-4, P10412 (P10412 whole entry): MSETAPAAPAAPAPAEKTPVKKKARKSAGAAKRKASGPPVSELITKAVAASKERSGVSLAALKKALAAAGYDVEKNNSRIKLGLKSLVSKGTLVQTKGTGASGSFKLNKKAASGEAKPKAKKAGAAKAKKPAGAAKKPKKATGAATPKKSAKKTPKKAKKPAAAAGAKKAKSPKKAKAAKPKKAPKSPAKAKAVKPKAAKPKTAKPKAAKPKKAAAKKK

Row | Variant | effect of a mutation on the interaction
1 | F447A | decreasing interaction

Variants of: B1
Conditions: with h14_human H1-4, P10412
Remark: another data set of the same source

Row | Variant | effect of a mutation on the interaction
2 | D423N | decreasing interaction

Variants of: B1
Conditions: with h4_human H4C16, P62805

Row | Variant | effect of a mutation on the interaction
3 | D423N | decreasing interaction
